{"source": "patent US20060239990A1", "about": "“Protein Arginine N-Methyltransferase 2 (PRMT-2)” (priority 2003, published 2006)", "molecules": {"B1": {"name": "PRMT2: human PRMT-2 polypeptide, SEQ ID NO:2, expressed from pVR1012 vector with HA-tag (protein, listed as Homo sapiens)", "chain": "MATSGDCPRSESQGEEPAECSEAGLLQEGVQPEEFVAIADYAATDETQLSFLRGEKILILRQTTADWWWGERAGCCGYIPANHVGKHVDEYDPEDTWQDEEYFGSYGTLKLHLEMLADQPRTTKYHSVILQNKESLTDKVILDVGCGTGIISLFCAHYARPRAVYAVEASEMAQHTGQLVLQNGFADIITVYQQKVEDVVLPEKVDVLVSEWMGTCLLFEFMIESILYARDAWLKEDGVIWPTMAALHLVPCSADKDYRSKVLFWDNAYEFNLSALKSLAVKEFFSKPKYNHILKPEDCLSEPCTILQLDMRTVQISDLETLRGELRFDIRKAGTLHGFTAWFSVHFQSLQEGQPPQVLSTGPFHPTTHWKQTLFMMDDPVPVHTGDVVTGSVVLQRNPVWRRHMSVALSWAVTSRQDPTSQKVGEKVFPIWR", "modifications": "HA tag"}}, "key": {"HIV-1 LTR": {"tested_on": "HIV-1 LTR", "assay": "HIV-1 reporter transcription, transient co-transfection", "type": "cell-based, human", "procedure": "Cell culture, transfection, and reporter gene assays. The E1A-transformed, human kidney cell line, 293, and NIH-3T3 cells were maintained in Dulbecco's Modified Eagle Medium (DMEM) supplemented with 10% fetal calf serum and penicillin-streptomycin at 37° C. in 5% carbon dioxide in tissue culture grade Petri dishes. PRMT-2−/− mouse embryo fibroblasts (MEFs) and wild type MEFs were prepared from day 13.5 embryos and maintained in DMEM supplemented with 10% fetal calf serum. MEFs at passage 4 were used in this experiment. Lipofectamine Plus™ reagent (Boehringer Mannheim) was used to transfect both 293 and NIH-3T3 cells according to directions from the manufacturer. […] TNF-α stimulation of cells was done using recombinant TNF-α (200 U/ml) for 12 hours. Transfected cells were harvested at 36 hours, and CAT activity was assayed on 10 to 100 μg of protein from whole cell extracts. CAT assays were performed essentially as described in Leung, K. & Nabel, G. J. Nature 333, 776-778 (1988). To analyze the κB-reporter activity in MEFs, cells were transfected with the reporter (2×kB-Luc) and PRL-TK vector (Promega) using FuGENE6 transfection reagent (Roche). Luciferase activity was analyzed by Dual-Luciferase Reporter Assay System (Promega).\nTo determine whether PRMT-1, 2 or 3 could affect NF-κB function, their potential to regulate effects on transcription of the human immunodeficiency virus type 1 (HIV-1) was examined. Transient co-transfections were performed using PRMT1, PRMT2 and PRMT3 expression plasmids with an HIV-1 reporter plasmid in the human renal epithelial cell line, 293T.\nTo determine its dependence on NF-κB, human immunodeficiency virus type 1 (HIV-1) reporter plasmids with wild-type (WT) or mutant (ΔκB) sites were co-transfected transiently with control or PRMT2 expression plasmids in the different cell lines. […] The KB effect was dose-dependent and was also observed with other inducers of NF-κB, including phorbol […] (PMA) (FIG. 2B, right panel)."}, "RB": {"biological_target": "T1, RB (Homo sapiens, UniProt P06400)", "T1 construct": "coding region of RB cDNA was subcloned into pGEX-6P (Amersham/Pharmacia) for generation of GST-RB; made in house", "T1 sequence (P06400 1-928)": "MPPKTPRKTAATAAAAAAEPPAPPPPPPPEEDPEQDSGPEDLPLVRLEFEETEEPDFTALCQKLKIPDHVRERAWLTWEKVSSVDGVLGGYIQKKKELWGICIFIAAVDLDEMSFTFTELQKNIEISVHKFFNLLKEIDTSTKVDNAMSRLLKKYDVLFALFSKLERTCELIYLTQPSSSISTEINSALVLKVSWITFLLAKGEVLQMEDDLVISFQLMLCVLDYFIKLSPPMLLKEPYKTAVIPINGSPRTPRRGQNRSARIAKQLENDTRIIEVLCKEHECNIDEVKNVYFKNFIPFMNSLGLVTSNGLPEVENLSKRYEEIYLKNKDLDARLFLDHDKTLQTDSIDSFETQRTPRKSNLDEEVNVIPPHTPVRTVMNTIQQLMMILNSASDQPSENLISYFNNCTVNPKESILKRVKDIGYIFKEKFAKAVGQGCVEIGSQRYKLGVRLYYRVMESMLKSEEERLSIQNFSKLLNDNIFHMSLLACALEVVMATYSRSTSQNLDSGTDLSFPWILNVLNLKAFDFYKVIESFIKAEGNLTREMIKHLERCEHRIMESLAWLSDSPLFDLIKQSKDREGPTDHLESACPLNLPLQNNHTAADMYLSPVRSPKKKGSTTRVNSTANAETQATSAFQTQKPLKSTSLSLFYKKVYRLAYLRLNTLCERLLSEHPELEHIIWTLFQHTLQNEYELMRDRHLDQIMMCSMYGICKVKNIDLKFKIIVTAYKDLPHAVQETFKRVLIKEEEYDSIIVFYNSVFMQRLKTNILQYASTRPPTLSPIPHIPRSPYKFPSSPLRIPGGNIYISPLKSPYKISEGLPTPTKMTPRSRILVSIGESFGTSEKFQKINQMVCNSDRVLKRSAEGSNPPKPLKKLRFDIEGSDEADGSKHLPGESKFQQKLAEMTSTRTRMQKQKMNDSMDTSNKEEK", "assay": "In vitro binding assay with GST-RB", "conditions": "S35-labeled in vitro translated protein", "procedure": "The crude cell lysate of the GST-fusion proteins was prepared and purified according to the manufacture's protocol (Amersham/Pharmacia). [^35S]-methionine-labeled protein was produced by in vitro transcription/translation using the TNT T7-coupled reticulocyte lysate system (Promega). [^35S]-methionine-labeled protein and GST-fusion protein bound to glutathione sepharose 4B beads were incubated in 500 μl of HNE buffer (50 mM Hepes, pH 7.8, 150 mM NaCl, 1 mM EDTA, 1 mM DTT, 1% NP40, and 1× protease inhibitor mix (Complete: Roche)) at 4° C. for 1 hour. Beads were washed four times with HNE buffer, and then analyzed on an SDS-PAGE gradient gel (4-15%). For the detection of endogenous PRMT-2 interaction with RB, MEFs were lysed with WCL buffer (50 mM Hepes, pH 7.8, 400 mM NaCl, 2 mM EDTA, 1 mM DTT, 0.2% NP40, 10% Glycerol, 20 mM α-glycerophosphate, 5 mM NaF, 0.1 mM NaVO4, and 1× protease inhibitor mix). Then, 1 mg of whole cell extracts were incubated with HNE buffer without DTT and 3 μg of antibodies as indicated. The immune complexes were isolated using protein G beads, and washed four times with HNE buffer. The precipitated protein was boiled with SDS-loading buffer and resolved on SDS-PAGE. For immunoprecipitation of HA-tagged protein, transfected cells were lysed with RIPA buffer (phosphate buffer saline containing 1% NP40, 0.5% sodium deoxycholate, 0.1% SDS, and 1× Complete), and 100 μg of whole cell lysates were immunoprecipitated with anti-HA antibodies and washed in RIPA buffer. Western blot analysis was performed as described in Tanner et al. (1998). Circ Res, 82, 396-403.\nTo test whether PRMT family members interact with RB, S^35-labeled in vitro translated PRMT1, PRMT2, PRMT3, and PRMT4 (CARM1) were incubated with GST-RB fusion proteins or control GST, and co-precipitated labeled proteins were resolved by SDS-PAGE. […] An equal amount of GST-RB and GST were loaded in each lane, verified by Coomassie staining (FIG. 8B)."}}, "data": [{"molecule": "B1", "values": [{"measurement": "inhibition of HIV-1 transcription", "setting": "HIV-1 LTR; 293T cells, expression plasmid co-transfected with HIV-1 reporter plasmid", "result": "about 50 fold"}, {"measurement": "HIV-1 transcription from wild-type reporter", "setting": "HIV-1 LTR; 293 cells, basal and TNF-α-dependent", "result": "significantly inhibited both basal and TNF-α-dependent HIV-1 transcription"}, {"measurement": "binding to RB", "setting": "RB", "result": "directly interacts with RB"}]}]}
